B1: Apoptosis-associated speck-like protein containing a CARD, residues 114 to 194; numbered along this chain, Q9ULZ3 (parent)
chain: FIDQHRAALIARVTNVEWLLDALYGKVLTDEQYQAVRAEPTNPSKMRKLFSFTPAWNWTCKDLLLQALRESQSYLVEDLER

± gives the uncertainty stated by the source.

Variants of B1 are the subject of this data set. The data set can be described thus: abundance fitness (aPCA) (normalised: wild type 0, dead -1); higher = more abundant; growth selection in yeast, the domain comes from the species named. To be noted: Homo sapiens.
On to K26D, for which the abundance fitness is -0.483 ± 0.11.

Turning to L28P, the abundance fitness is -0.878 ± 0.14. Regarding L28E, the abundance fitness was -0.817 ± 0.12.

For the variant V27M, the abundance fitness was -0.722 ± 0.18. The figure for V27L is -0.65 ± 0.071; for V27A it is -0.21 ± 0.049; for V27D it is -0.904 ± 0.14.

Regarding V27F, the abundance fitness was -0.413 ± 0.1. For the variant L79I, the abundance fitness was -0.455 ± 0.24. As for L79V, the abundance fitness is -0.775 ± 0.15. Turning to L79W, the abundance fitness was -1.06 ± 0.22.

L79G: the abundance fitness is -0.882 ± 0.11. Take L79N: the abundance fitness was -0.688 ± 0.38. To L79R belongs -0.751 ± 0.074; to L79Y, -0.886 ± 0.18; to G25K, 0.025 ± 0.14. With G25W, the abundance fitness was -0.325 ± 0.077.

For the variant G25V, the abundance fitness was -0.779 ± 0.097. To F52C belongs -0.966 ± 0.18. F52V: the abundance fitness was -0.649 ± 0.056. As to F52A, the abundance fitness was -0.732 ± 0.092. For F52D, the abundance fitness was -0.996 ± 0.21. For the variant P40R, the abundance fitness is -0.167 ± 0.041.

Take P40T: the abundance fitness is -0.202 ± 0.07. As for P40I, the abundance fitness is -0.339 ± 0.14. The figure for P40E is -0.257 ± 0.086; for E70L it is -0.467 ± 0.074. In the case of E70T, the abundance fitness is -0.181 ± 0.1.

Consider S51T, for which the abundance fitness is -0.141 ± 0.056.

As for S51R, the abundance fitness is -0.839 ± 0.083.

For D3H, the abundance fitness is -0.616 ± 0.16. Take D3F: the abundance fitness is -0.749 ± 0.38. For the variant D3R, the abundance fitness was -0.544 ± 0.095. The figure for D3K is -0.825 ± 0.44; for A67I it is -0.372 ± 0.19; for A67N it is -0.278 ± 0.22. To A67P belongs -0.658 ± 0.11; to A67K, -0.446 ± 0.18.

Consider A67Y, for which the abundance fitness was -0.239 ± 0.13. The figure for A67V is -0.484 ± 0.055; for L63F it is -0.381 ± 0.073. As for L63M, the abundance fitness was determined as 0.056 ± 0.095. To L63V belongs -0.232 ± 0.055. Turning to L63D, the abundance fitness is -0.777 ± 0.14. The figure for L63Y is -0.028 ± 0.12.

As to L63K, the abundance fitness was -0.298 ± 0.11.

In the case of L63T, the abundance fitness was -0.325 ± 0.076.

With D21L, the abundance fitness was -0.695 ± 0.091. As for D21Y, the abundance fitness is -0.805 ± 0.11. In the case of D21K, the abundance fitness was -0.287 ± 0.11. To D21F belongs -0.801 ± 0.31; to D21Q, -0.115 ± 0.082; to V16F, -0.941 ± 0.26. The figure for V16W is -0.533 ± 0.084; for P43Y it is -0.593 ± 0.13. Regarding P43I, the abundance fitness is -0.566 ± 0.19. For the variant P43F, the abundance fitness was -0.395 ± 0.15. With P43N, the abundance fitness is -0.241 ± 0.11.

As for P43Q, the abundance fitness came to 0.065 ± 0.097.

As for V36R, the abundance fitness is -0.833 ± 0.1.

For V36P, the abundance fitness was -0.89 ± 0.19. On to V36D, for which the abundance fitness was -0.79 ± 0.21. Take V36C: the abundance fitness was found to be 0.04 ± 0.069.

Take V36M: the abundance fitness was -0.837 ± 0.27. Regarding V36L, the abundance fitness was -0.846 ± 0.11. For N15A, the abundance fitness is -0.718 ± 0.077. For the variant N15G, the abundance fitness was -0.604 ± 0.058. Regarding N15H, the abundance fitness is -0.291 ± 0.11. As to N15E, the abundance fitness was -0.188 ± 0.064.

With K45L, the abundance fitness was -0.918 ± 0.11. Regarding K45C, the abundance fitness was -0.887 ± 0.16. Regarding K45H, the abundance fitness is -1.06 ± 0.48. For K45V, the abundance fitness is -0.609 ± 0.073.

For the variant E77L, the abundance fitness is -0.428 ± 0.08. With E77G, the abundance fitness was -0.481 ± 0.049. For T41G, the abundance fitness was -0.484 ± 0.048. T41Y: the abundance fitness was -0.519 ± 0.24. The figure for T41Q is -0.517 ± 0.14; for T41F it is -1.2 ± 0.31. To T41W belongs -0.653 ± 0.098; to T41E, -0.782 ± 0.17. On to A7P, for which the abundance fitness was -0.437 ± 0.09. On to A7V, for which the abundance fitness is -0.249 ± 0.058. A7K: the abundance fitness was -0.035 ± 0.1. As for A7Y, the abundance fitness was -0.54 ± 0.36. As to A7M, the abundance fitness was -0.251 ± 0.078.

As to A35S, the abundance fitness was -0.08 ± 0.052. With A35N, the abundance fitness was -0.851 ± 0.29. For A35E, the abundance fitness is -0.064 ± 0.061. With A35R, the abundance fitness was -0.491 ± 0.059. The figure for A35F is -0.84 ± 0.17; for K48Q it is -0.674 ± 0.16. Regarding K48I, the abundance fitness was -0.779 ± 0.32. For the variant K48C, the abundance fitness is -0.667 ± 0.14. To K48H belongs -0.655 ± 0.34; to A11R, -0.038 ± 0.45. P54L: the abundance fitness is -0.328 ± 0.047. To P54D belongs 0.132 ± 0.094; to P54F, 0.057 ± 0.14; to P54W, -0.084 ± 0.068. With P54G, the abundance fitness is -0.017 ± 0.044. For P54H, the abundance fitness is -0.196 ± 0.16. As for P54C, the abundance fitness was -0.254 ± 0.085. Consider P54M, for which the abundance fitness is -0.292 ± 0.11.

In the case of R6D, the abundance fitness is -0.724 ± 0.19. Take R6A: the abundance fitness is -0.074 ± 0.059. Take R6L: the abundance fitness is -0.362 ± 0.061.

For R6Y, the abundance fitness is -0.327 ± 0.14. The figure for R6G is -0.501 ± 0.057; for R6K it is 0.014 ± 0.1. Regarding W58G, the abundance fitness was found to be 0.205 ± 0.037.

Consider W58C, for which the abundance fitness was 0.047 ± 0.082. To W58R belongs 0.234 ± 0.037. The figure for W58M is 0.167 ± 0.075.

In the case of W58N, the abundance fitness came out at 0.105 ± 0.26.

Take R12L: the abundance fitness was -0.948 ± 0.13.

In the case of R12S, the abundance fitness is -0.462 ± 0.085.

For the variant V76F, the abundance fitness is -0.637 ± 0.21. As to V76W, the abundance fitness was -0.611 ± 0.2. V76L: the abundance fitness is -0.27 ± 0.072. As to V76H, the abundance fitness is -0.959 ± 0.35.

V76E: the abundance fitness was -0.838 ± 0.17. As to V76C, the abundance fitness is -0.497 ± 0.15.

Turning to V76D, the abundance fitness is -0.312 ± 0.12. As to V76A, the abundance fitness is -0.698 ± 0.08. For the variant D30I, the abundance fitness is -0.309 ± 0.14. Turning to D30R, the abundance fitness was -0.254 ± 0.053.

For the variant D30C, the abundance fitness was -0.539 ± 0.13. Regarding D30P, the abundance fitness was -0.213 ± 0.075. Consider D30Y, for which the abundance fitness is -0.293 ± 0.11.

Regarding D30Q, the abundance fitness was -0.199 ± 0.11. For the variant D30K, the abundance fitness is -0.416 ± 0.12.

For the variant N42W, the abundance fitness is -0.582 ± 0.076.

Regarding N42S, the abundance fitness is -0.445 ± 0.061. Turning to N42V, the abundance fitness is -0.596 ± 0.082. N42M: the abundance fitness is -0.48 ± 0.096.

For the variant N42P, the abundance fitness is -0.306 ± 0.077. To N42G belongs -0.331 ± 0.05. To I10P belongs -0.985 ± 0.25; to I10W, -0.793 ± 0.11; to I10D, -0.658 ± 0.15. Consider I10M, for which the abundance fitness is -0.489 ± 0.11.

With I10H, the abundance fitness is -0.769 ± 0.27. For the variant I10T, the abundance fitness was -0.515 ± 0.092. Turning to R69G, the abundance fitness is -0.736 ± 0.082.

In the case of R69W, the abundance fitness is -0.679 ± 0.12.

R69P: the abundance fitness is -0.753 ± 0.12. On to L68Y, for which the abundance fitness was -0.777 ± 0.24. For the variant L68C, the abundance fitness is -0.688 ± 0.21. The figure for L68F is -0.477 ± 0.17. L68D: the abundance fitness was -1.01 ± 0.43. As to L68Q, the abundance fitness is -0.876 ± 0.45. For the variant L68A, the abundance fitness is -0.733 ± 0.14.

A55P: the abundance fitness was -0.325 ± 0.073. The figure for A55T is -0.061 ± 0.084. Regarding A55H, the abundance fitness is -0.005 ± 0.15. In the case of A55N, the abundance fitness came to 0.181 ± 0.22. In the case of A55G, the abundance fitness is 0.082 ± 0.049. As to A55V, the abundance fitness is -0.416 ± 0.082. As for L20S, the abundance fitness is -0.583 ± 0.077. For the variant L20R, the abundance fitness was -0.917 ± 0.095. The figure for L20N is -0.797 ± 0.33; for L20M it is -0.458 ± 0.093; for M46R it is -0.653 ± 0.068.

Consider M46A, for which the abundance fitness is -0.679 ± 0.056.

As to M46W, the abundance fitness was -0.696 ± 0.12.

Regarding M46D, the abundance fitness is -1.03 ± 0.32.

The values above are taken from the Human Domainome abundance scans (Beltran et al. 2025).
